1 protein from FireProtDB (doi:10.1111/j.1399-3011.1991.tb01525.x) can be followed below.

The conditions of this series: Aspergillus oryzae (strain ATCC 42149 / RIB 40), Thermal, DSC, glycine 0.05 M, reversible: yes, whole UniProt chain shown.

B1: Guanyl-specific ribonuclease T1 wild type, P00651 (protein)
chain: MMYSKLLTLTTLLLPTALALPSLVERACDYTCGSNCYSSSDVSTAQAAGYQLHEDGETVGSNSYPHKYNNYEGFDFSVSSPYYEWPILSSGDVYSGGSPGADRVVFNENNQLAGVITHTGASGNNFVECT
On to B1, for which the Tm is, setting by setting: (pH 2) 39.2 °C; (pH 2.5) 45.6 °C; (pH 3) 50.5 °C; (pH 4) 63.3 °C. The “unfolding enthalpy (calorimetric)” value was determined as 82 kcal/mol (pH 2), 89.4 kcal/mol (pH 2.5), 97.3 kcal/mol (pH 3) and 110 kcal/mol (pH 4). The “heat capacity change of unfolding” value (pH 3, 40 °C) came to 1.19 kcal/mol/K. The unfolding free energy (pH 3, 40 °C) is 2.94 kcal/mol.

Usually Tm stands for the temperature at the midpoint of the melting transition.
